Settings: phosphorylation at S486

SGK3: AZD8055 (mTOR catalytic inhibitor, 0.1 uM, 1 h)
enzymatic_activity: decreases
